T1: N-cadherin GFP11 (chick, UniProt P10288 165-912)
T1 construct: Synthesized by GenScript; also called N-cad GFP11; N-cad GFP 11; source: CHO cells, transfected, in cells; chick embryo, electroporated in ovo into trigeminal placode cells; not shown: split GFP subunit 11 (GFP11), N-terminal, kept
T1 sequence (looked up): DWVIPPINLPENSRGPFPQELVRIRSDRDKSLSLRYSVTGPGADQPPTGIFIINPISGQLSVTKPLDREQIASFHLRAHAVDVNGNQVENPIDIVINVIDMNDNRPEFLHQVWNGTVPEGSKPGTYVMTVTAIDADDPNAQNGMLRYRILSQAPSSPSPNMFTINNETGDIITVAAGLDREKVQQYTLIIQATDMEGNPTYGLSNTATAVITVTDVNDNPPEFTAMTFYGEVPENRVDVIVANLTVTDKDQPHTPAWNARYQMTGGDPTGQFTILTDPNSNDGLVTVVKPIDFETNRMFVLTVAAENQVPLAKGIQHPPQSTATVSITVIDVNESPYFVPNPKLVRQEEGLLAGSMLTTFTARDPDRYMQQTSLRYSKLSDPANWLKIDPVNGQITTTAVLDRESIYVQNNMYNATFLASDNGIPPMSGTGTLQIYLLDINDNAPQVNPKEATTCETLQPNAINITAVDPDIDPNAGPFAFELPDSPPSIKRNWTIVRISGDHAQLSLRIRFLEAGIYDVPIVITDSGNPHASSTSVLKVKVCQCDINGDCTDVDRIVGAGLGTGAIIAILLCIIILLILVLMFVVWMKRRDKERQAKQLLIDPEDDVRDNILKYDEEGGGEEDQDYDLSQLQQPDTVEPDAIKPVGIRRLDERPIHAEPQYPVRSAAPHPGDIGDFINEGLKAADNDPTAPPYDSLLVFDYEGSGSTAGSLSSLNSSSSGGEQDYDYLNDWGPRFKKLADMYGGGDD

B1: Cadherin-7 GFP1-10 (natural protein, chick, UniProt Q90763 48-785, looked up)
chain: SWVWNQFFVLEEYMGSDPLYVGKLHSDVDKGDGSIKYILSGEGASSIFIIDENTGDIHATKRLDREEQAYYTLRAQAHDRLTNKPVEPESEFVIKIQDINDNEPKFLDGPYTAGVPEMSPVGTSVVQVTATDADDPTYGNSARVVYSILQGQPYFSVEPKTGIIKTALPNMDREAKDQYLLVIQAKDMVGQNGGLSGTTSVTVTLTDVNDNPPRFPRRSYQYNVPESLPLASVVARIKAADADVGPNAEMEYKIVDGDGLGVFKISVDKDTQEGIITIQKELDFEAKTSYTLRIEAANMHVDPRFLSLGPFSDMTTVKIIVEDVDEPPVFTSRLYSMVVSEAAKVGTIIGTVAAHDPDASNSPVRYSIDRNTDLERYFNIDANSGVITTAKSLDRETNAVHNITVLAMESQNPAQIGRGYVAITILDINDNAPEFAMEYETTVCENAQPGQIIQKISAIDKDDPPNGHQFYFSLTAEAANNHNFTLQDNKDNTATVLTRRNGFRRQEQSVFYLPIFIVDSGSPSLSSTNTLTIRVCDCDADGIAQTCNAEAYILPAGLSTGALIAILACVLTLLVLVLLIVTMRRRKKEPLIFDEERDIRENIVRYDDEGGGEEDTEAFDMAALRNLNIIRDTKTRRDVTPEIQFLSRPTFKSIPDNVIFREFIWERLKEADVDPCAPPYDSLQTYAFEGNGSVAESLSSLDSISSNSDQNYDYLSDWGPRFKRLADMYGSGPDCLYS
notes: Synthesized by GenScript; also called Cad7 GFP1-10; source: CHO cells, transfected, in cells; chick embryo, electroporated in ovo into premigratory neural crest cells; not shown: split GFP subunits 1-10 (GFP1-10), N-terminal, kept
B2: Cadherin-7 GFP11 (natural protein, chick, UniProt Q90763 48-785, looked up)
chain: SWVWNQFFVLEEYMGSDPLYVGKLHSDVDKGDGSIKYILSGEGASSIFIIDENTGDIHATKRLDREEQAYYTLRAQAHDRLTNKPVEPESEFVIKIQDINDNEPKFLDGPYTAGVPEMSPVGTSVVQVTATDADDPTYGNSARVVYSILQGQPYFSVEPKTGIIKTALPNMDREAKDQYLLVIQAKDMVGQNGGLSGTTSVTVTLTDVNDNPPRFPRRSYQYNVPESLPLASVVARIKAADADVGPNAEMEYKIVDGDGLGVFKISVDKDTQEGIITIQKELDFEAKTSYTLRIEAANMHVDPRFLSLGPFSDMTTVKIIVEDVDEPPVFTSRLYSMVVSEAAKVGTIIGTVAAHDPDASNSPVRYSIDRNTDLERYFNIDANSGVITTAKSLDRETNAVHNITVLAMESQNPAQIGRGYVAITILDINDNAPEFAMEYETTVCENAQPGQIIQKISAIDKDDPPNGHQFYFSLTAEAANNHNFTLQDNKDNTATVLTRRNGFRRQEQSVFYLPIFIVDSGSPSLSSTNTLTIRVCDCDADGIAQTCNAEAYILPAGLSTGALIAILACVLTLLVLVLLIVTMRRRKKEPLIFDEERDIRENIVRYDDEGGGEEDTEAFDMAALRNLNIIRDTKTRRDVTPEIQFLSRPTFKSIPDNVIFREFIWERLKEADVDPCAPPYDSLQTYAFEGNGSVAESLSSLDSISSNSDQNYDYLSDWGPRFKRLADMYGSGPDCLYS
notes: Synthesized by GenScript; also called Cad7 GFP11; Cad711; source: CHO cells, transfected, in cells; chick embryo, electroporated in ovo into premigratory neural crest cells; not shown: split GFP subunit 11 (GFP11), N-terminal, kept
B3: N-cadherin GFP1-10 (natural protein, chick, UniProt P10288 165-912, looked up)
chain: DWVIPPINLPENSRGPFPQELVRIRSDRDKSLSLRYSVTGPGADQPPTGIFIINPISGQLSVTKPLDREQIASFHLRAHAVDVNGNQVENPIDIVINVIDMNDNRPEFLHQVWNGTVPEGSKPGTYVMTVTAIDADDPNAQNGMLRYRILSQAPSSPSPNMFTINNETGDIITVAAGLDREKVQQYTLIIQATDMEGNPTYGLSNTATAVITVTDVNDNPPEFTAMTFYGEVPENRVDVIVANLTVTDKDQPHTPAWNARYQMTGGDPTGQFTILTDPNSNDGLVTVVKPIDFETNRMFVLTVAAENQVPLAKGIQHPPQSTATVSITVIDVNESPYFVPNPKLVRQEEGLLAGSMLTTFTARDPDRYMQQTSLRYSKLSDPANWLKIDPVNGQITTTAVLDRESIYVQNNMYNATFLASDNGIPPMSGTGTLQIYLLDINDNAPQVNPKEATTCETLQPNAINITAVDPDIDPNAGPFAFELPDSPPSIKRNWTIVRISGDHAQLSLRIRFLEAGIYDVPIVITDSGNPHASSTSVLKVKVCQCDINGDCTDVDRIVGAGLGTGAIIAILLCIIILLILVLMFVVWMKRRDKERQAKQLLIDPEDDVRDNILKYDEEGGGEEDQDYDLSQLQQPDTVEPDAIKPVGIRRLDERPIHAEPQYPVRSAAPHPGDIGDFINEGLKAADNDPTAPPYDSLLVFDYEGSGSTAGSLSSLNSSSSGGEQDYDYLNDWGPRFKKLADMYGGGDD
notes: Synthesized by GenScript; also called N-cad GFP1-10; N-cad GFP 1-10; source: CHO cells, transfected, in cells; chick embryo, electroporated in ovo into trigeminal placode cells; not shown: split GFP subunits 1-10 (GFP1-10), N-terminal, kept

Key:
Experiment in all cases: split reporter (BiFC, NanoBiT); GRASP (split GFP1-10 / GFP11 on the cadherin extracellular domain); both constructs co-transfected into CHO cells (in cis); GFP fluorescence by confocal imaging, GFP+ cells/DAPI+ cells
Settings in all cases: partners not purified
Cadherin-7 GFP11 = target: B2
N-cadherin GFP11 = target: T1, N-cadherin GFP11
N-cadherin GFP1-10 = target: B3

Binder	percent GFP-positive cells (GFP+ cells/DAPI+ cells) (Cadherin-7 GFP11)	percent GFP-positive cells (GFP+ cells/DAPI+ cells) (N-cadherin GFP11)	percent GFP-positive cells (GFP+ cells/DAPI+ cells) (N-cadherin GFP1-10)
B1	10.5%	8.9%	–
B2	–	–	5.76%
B3	–	13.2%	–
